In paper doi:10.1101/466938v1:

B1: hTMPK (Homo sapiens) (protein)
chain: MAARRGALIVLEGVDRAGKSTQSRKLVEALCAAGHRAELLRFPERSTEIGKLLSSYLQKKSDVEDHSVHLLFSANRWEQVPLIKEKLSQGVTLVVDRYAFSGVAFTGAKENFSLDWCKQPDVGLPKPDLVLFLQLQLADAAKRGAFGHERYENGAFQERALRCFHQLMKDTTLNWKMVDASKSIEAVHEDIRVLSEDAIRTATEKPLGELWK
B2: CaTMPK (Candida albicans SC5314) (protein)
chain: MARGQLILIEGLDRSGKSTQASILSTKLSPSKLIKFPDRSTPIGKLINEYLTNKSFTLSDQAAHLLFSANRWELSQQIQDLLNQGYFIILDRYIYSGIAYTLAKNDFHDETISQGKNKQQLNNIDWLLSPDKGLPKPDLTLFLTLDLEEISKRKGWGDERYELQQFQAKVKQCFLEILDTNKDPTIRIVDVGGKTIDQVTTQLWEIIETNKNHELINDSIQFIT

Tests used:
NADH-coupled assay [1] = substrate: Cc1cn([C@H]2C[C@H](O)[C@@H](COP(=O)(O)O)O2)c(=O)[nH]c1=O; assay: NADH-coupled assay; type: biochemical, Homo sapiens; conditions: 500 μM ATP, 100 mM Tris-HCl, 100 mM KCl, 10 mM MgCl2
NADH-coupled assay [2] = substrate: Cc1cn([C@H]2C[C@H](O)[C@@H](COP(=O)(O)O)O2)c(=O)[nH]c1=O; assay: NADH-coupled assay; type: biochemical, Candida albicans; conditions: 500 μM ATP, 100 mM Tris-HCl, 100 mM KCl, 10 mM MgCl2

Protein | Km (NADH-coupled assay [1]) | kcat (NADH-coupled assay [1]) | Km (NADH-coupled assay [2]) | kcat (NADH-coupled assay [2])
B1 | 16.3 ± 2.3 µM | 0.352 ± 0.01 s⁻¹ | – | –
B2 | – | – | 24.1 ± 3.2 µM | 5.347 ± 0.118 s⁻¹
